Positions count from the first letter of the chain named. Values joined by “and” are separate entries in the source; they are usually repeats but may differ in a detail not shown here. Equal values may be shown once.
B1: MIAB198 (antibody, V domains shown)
VH: EVQLLESGGGLVQPGGSLRLSCAASGFTFSDFWMHWVRQAPGKGLEWISYISGDSGYTNYADSVKGRFTISRDNSKNTLYLQMNSLRAEDTAVYYCARDRPYYYIMDVWGKGTTVTVSS
VL: DIQMTQSPSSLSASVGDRVTITCRASQSVSRSLAWYQQKPGKAPKLLIYAASSLQSGVPSRFSGSGSGTDFTLTISSLQPEDFATYYCQQYKSYPVTFGQGTKVEIK
B2: MIAB150 (antibody, V domains shown)
VH: B1 VH with I105Y
VL: B1 VL with V29I, S32Y
B3: MIAB155 (antibody, V domains shown)
VH: B1 VH with I105Y
VL: B1 VL with V29I, R31S, A34N
B4: MIAB128 (antibody, V domains shown)
VH: B1 VH with Y102N, I105Y
VL: B1 VL
B5: MIAB157 (antibody, V domains shown)
VH: B1 VH with I105Y
VL: B1 VL with V29I, R31S, S32Y
B6: MIAB161 (antibody, V domains shown)
VH: B1 VH with N74Q, I105Y
VL: B1 VL
B7: MIAB131 (antibody, V domains shown)
VH: B1 VH with I105G
VL: B1 VL
B8: MIAB163 (antibody, V domains shown)
VH: B1 VH with I105Y
VL: B1 VL with A34D
B9: MIAB164 (antibody, V domains shown)
VH: B1 VH with I105Y
VL: B1 VL with A34T
B10: MIAB168 (antibody, V domains shown)
VH: B1 VH with I105Y
VL: B1 VL with A34L
B11: MIAB160 (antibody, V domains shown)
VH: B1 VH with N59Q, I105Y
VL: B1 VL
B12: MIAB165 (antibody, V domains shown)
VH: B1 VH with I105Y
VL: B1 VL with A34S
B13: MIAB156 (antibody, V domains shown)
VH: B1 VH with I105Y
VL: B1 VL with V29I, S32Y, A34N
B14: MIAB167 (antibody, V domains shown)
VH: B1 VH with I105Y
VL: B1 VL with A34K
B15: MIAB162 (antibody, V domains shown)
VH: B1 VH with I105Y
VL: B1 VL with A34G
B16: MIAB166 (antibody, V domains shown)
VH: B1 VH with I105Y
VL: B1 VL with A34E
B17: MIAB159 (antibody, V domains shown)
VH: B1 VH with D54E, I105Y
VL: B1 VL
B18: MIAB172 (antibody, V domains shown)
VH: B1 VH with Y102T, I105Y
VL: B1 VL
B19: MIAB152 (antibody, V domains shown)
VH: B1 VH with I105Y
VL: B1 VL with R31S, S32Y
B20: MIAB130 (antibody, V domains shown)
VH: B1 VH with I105Q
VL: B1 VL
B21: MIAB134 (antibody, V domains shown)
VH: B1 VH with D31A, I105Y
VL: B1 VL
B22: MIAB154 (antibody, V domains shown)
VH: B1 VH with I105Y
VL: B1 VL with S32Y, A34N
B23: MIAB158 (antibody, V domains shown)
VH: B1 VH with I105Y
VL: B1 VL with R31S, S32Y, A34N
B24: MIAB129 (antibody, V domains shown)
VH: B1 VH with Y102G, I105Y
VL: B1 VL

Biological target: Insulin
Sequence (P01308 25-54, chain 1 of 2): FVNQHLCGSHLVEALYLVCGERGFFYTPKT
Sequence (P01308 90-110, chain 2 of 2): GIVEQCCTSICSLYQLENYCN
Experiment: polyreactivity ELISA on insulin coat, 100 nM

Binder	Insulin polyreactivity score
B1	3.19 and 3.63
B2	3.74
B3	1.99
B4	2.62
B5	3.99
B6	5
B7	8
B8	18.5
B9	7.07
B10	8.35
B11	17.8
B12	9.53
B13	45.2
B14	29.6
B15	5.31
B16	7.89
B17	4.66
B18	3.79
B19	2.83
B20	3.26
B21	25.5
B22	61.9
B23	2.67
B24	2.43
